Data on 8 molecules can be found in paper PMC4274631 (RNA, 2015).

For experiment [1], the system named is S. pombe RNA triphosphatase Pct1. As to conditions: ref Pei et al. 2001b; cited from earlier work.
A further experiment concerns the target T1, Pct1 (Schizosaccharomyces pombe, UniProt Q9P6Q6).
T1 sequence (Q9P6Q6 1-303): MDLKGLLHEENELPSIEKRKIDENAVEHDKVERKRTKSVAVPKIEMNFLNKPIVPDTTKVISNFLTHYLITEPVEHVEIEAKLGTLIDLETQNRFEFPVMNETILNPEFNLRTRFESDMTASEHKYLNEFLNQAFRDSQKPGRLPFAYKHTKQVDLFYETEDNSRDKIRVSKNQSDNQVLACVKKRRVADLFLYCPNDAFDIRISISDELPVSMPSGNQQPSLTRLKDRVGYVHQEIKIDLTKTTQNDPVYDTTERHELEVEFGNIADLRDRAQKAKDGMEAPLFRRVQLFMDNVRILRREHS
The class given is binding, S. pombe. The note with it: 180-fold higher than Kd for Spt5-(801–898).

For another experiment, the system named is Plus3 domain of Rtf1. As to conditions: phosphorylated CTR peptide; pdb 4L1U; ref Wier et al. 2013; cited from earlier work.
Experiment [2] concerns the target T2, S. pombe RNA triphosphatase Pct1 (wild type) (S. pombe, UniProt Q9P6Q6 1-303).
T2 sequence (looked up): T1 sequence (Q9P6Q6 1-303)
Description: crystal structure.

Experiment [3] addresses T2, S. pombe RNA triphosphatase Pct1 (wild …). The experiment is described as follows: fluorescence polarisation.
The target in experiment [4] is T3, S. pombe RNA triphosphatase Pct1 M100A (S. pombe, UniProt Q9P6Q6 1-303, M100A).
T3 sequence (looked up): T1 sequence (Q9P6Q6 1-303) with M100A
Description: fluorescence polarisation. Background: Polarisation of emitted light reports the rotation of a fluorescent probe.

The target in experiment [5] is T4, S. pombe RNA triphosphatase Pct1 M100R (S. pombe, UniProt Q9P6Q6 1-303, M100R).
T4 sequence (looked up): T1 sequence (Q9P6Q6 1-303) with M100R
Description: fluorescence polarisation.

In the next experiment the target is T5, Pct1 M100A (Schizosaccharomyces pombe, UniProt Q9P6Q6, M100A).
T5 sequence (Q9P6Q6 1-303 M100A): T1 sequence (Q9P6Q6 1-303) with M100A
Description: Fluorescence polarization binding of Spt5-. Also noted: species or system S. pombe. As to conditions: Pct1 M100A versus wild-type Pct1.

Experiment [6] deals with T2, S. pombe RNA triphosphatase Pct1 (wild …). The experiment is described as follows: fluorescence polarisation. This is another data set of the same source.
For experiment [7] the target is unchanged. The experiment is described as follows: fluorescence polarisation. The source holds these as a separate data set.

Changes are numbered by the printed parent chain. Where two headings read alike, the source gives them in different places. Where no end group is shown, it is not given here. fluorescein = fluorescein label

As usually defined, the Kd is a measure of binding affinity in units of concentration. Low values mean higher affinity, high ones lower affinity. Usually Ki stands for the dissociation constant of the complex between target and ligand, obtained from inhibition or displacement.

As to `O=P(O)(O)OP(=O)(O)OP(=O)(O)O` [tripolyphosphate], the competitive inhibition entry in experiment [1] is “high-affinity competitive inhibitor”.
Take SGSKTPAWNSGSKTPAWNSGSK: the “Kd relative to the Kd of Pct1 for the longer Spt5-(801–898) ligand” value at Pct1 worked out at 180 fold.
Consider SGSRTPPMYGSQ, for which the “binding to Rtf1 Plus3 domain in crystal” value in the experiment with Plus3 domain of Rtf1 is given as “bound”.
For the molecule TPAWNSGSRTPAWNSGSK [18-mer Spt5-CTD peptide TPAWNSGSRTPAWNSGSK, Spt5-(845-862)], the “stoichiometry N” value in experiment [2] was 2 peptides per Pct1 homodimer.

B1: BODIPY-FL-N(Cys)-Spt5-(801-898) (domain or fragment, S. pombe)
chain: CISTADGPNVPNWAQGARTPAVANGSRTPAWNTGSRTPAWNSGSKTPAWNSGSRTPAWNSGNKTPAWNAGSRTPAWNSGNKTPAWNVGNKTPAWNSGAK
modifications: BODIPY-FL at the N-terminus via maleimide chemistry (on the added N-terminal cysteine)
With B1, the Kd in experiment [3] was 0.68 ± 0.1 µM; in experiment [4], 1.4 ± 0.15 µM; in [5], 21.4 ± 2.4 µM.

B2: Spt5-(801–898): purified recombinant Spt5-(801–898) protein, comprising 10 nonamer repeats, labeled at the N-terminus with BODIPY-FL (protein)
chain: B1 chain
modifications: BODIPY-FL at the N-terminus via maleimide chemistry (on the added N-terminal cysteine)
B2: the “effect of M100A on Spt5 CTD binding” value with Pct1 M100A is “twofold”.
The molecule fluorescein-SGSKTPAWNSGSKTPAWNSGSK [fluorescein-labeled 22-amino acid synthetic Spt5 CTD peptide SGSKTPAWNSGSKTPAWNSGSK] came in with a Kd in [6] of 124 ± 10 µM.
SGSKTPAWNSGSKTPAWNSGSK [unphosphorylated 22-amino acid synthetic Spt5 CTD peptide SGSKTPAWNSGSKTPAWNSGSK (untagged)]: the Ki in experiment [7] came to 79 ± 9 µM.
